Reference: article PMC9603081, “Transcription Factors as Important Regulators of Changes in Behavior through Domestication of Gray Rats: Quantitative Data from RNA Sequencing”

B1: HBB rs34598529 A-28G (row 10) (dsDNA)
DNA 1: CAGGGCTGGGCATGAAAGTCAGGGCA
DNA 2: TGCCCTGACTTTCATGCCCAGCCCTG
B2: HBB rs281864525 A-25C (dsDNA)
DNA 1: CAGGGCTGGGCATAAACGTCAGGGCA
DNA 2: TGCCCTGACGTTTATGCCCAGCCCTG
B3: HBB rs34598529 A-28G (row 2) (dsDNA)
DNA 1: CAGGGCTGGGCATAGAAGTCAGGGCA
DNA 2: TGCCCTGACTTCTATGCCCAGCCCTG
B4: ASCL3 WT (dsDNA)
DNA 1: TCGAAAAATAAAATAAAATAAAACAT
DNA 2: ATGTTTTATTTTATTTTATTTTTCGA
B5: HBD rs34166473 T-30C (dsDNA)
DNA 1: ACAGGACCAGCACAAAAGGCAGGGCA
DNA 2: TGCCCTGCCTTTTGTGCTGGTCCTGT
B6: HBB rs34500389 C-32T (dsDNA)
DNA 1: CAGGGCTGGGTATAAAAGTCAGGGCA
DNA 2: TGCCCTGACTTTTATACCCAGCCCTG
B7: HBB rs33980857 T-29G (dsDNA)
DNA 1: CAGGGCTGGGCAGAAAAGTCAGGGCA
DNA 2: TGCCCTGACTTTTCTGCCCAGCCCTG
B8: HBB rs33980857 T-29C (dsDNA)
DNA 1: CAGGGCTGGGCACAAAAGTCAGGGCA
DNA 2: TGCCCTGACTTTTGTGCCCAGCCCTG
B9: HBB rs33980857 T-29A (dsDNA)
DNA 1: CAGGGCTGGGCAAAAAAGTCAGGGCA
DNA 2: TGCCCTGACTTTTTTGCCCAGCCCTG
B10: HBB rs63750953 del -25AA (dsDNA)
DNA 1: CCAGGGCTGGGCATAAGTCAGGGCAG
DNA 2: CTGCCCTGACTTATGCCCAGCCCTGG
B11: HBD rs35518301 A-31G (dsDNA)
DNA 1: ACAGGACCAGCGTAAAAGGCAGGGCA
DNA 2: TGCCCTGCCTTTTACGCTGGTCCTGT
B12: HBB rs33931746 A-27T (dsDNA)
DNA 1: CAGGGCTGGGCATATAAGTCAGGGCA
DNA 2: TGCCCTGACTTATATGCCCAGCCCTG
B13: HBD WT (dsDNA)
DNA 1: ACAGGACCAGCATAAAAGGCAGGGCA
DNA 2: TGCCCTGCCTTTTATGCTGGTCCTGT
B14: HBB WT (dsDNA)
DNA 1: CAGGGCTGGGCATAAAAGTCAGGGCA
DNA 2: TGCCCTGACTTTTATGCCCAGCCCTG
B15: HBB rs34598529 A-28C (dsDNA)
DNA 1: CAGGGCTGGGCATACAAGTCAGGGCA
DNA 2: TGCCCTGACTTGTATGCCCAGCCCTG

Tests used:
[1] = molecular target: TBP (TATA-binding protein) (Homo sapiens) (UniProt P20226); assay: EMSA; conditions: EMSA association kinetics, 0.3 nM TBP, four ODN concentrations; buffer, salt, pH and temperature not in the material
Chain of TBP (TATA-binding protein) (Homo sapiens) (P20226 whole entry): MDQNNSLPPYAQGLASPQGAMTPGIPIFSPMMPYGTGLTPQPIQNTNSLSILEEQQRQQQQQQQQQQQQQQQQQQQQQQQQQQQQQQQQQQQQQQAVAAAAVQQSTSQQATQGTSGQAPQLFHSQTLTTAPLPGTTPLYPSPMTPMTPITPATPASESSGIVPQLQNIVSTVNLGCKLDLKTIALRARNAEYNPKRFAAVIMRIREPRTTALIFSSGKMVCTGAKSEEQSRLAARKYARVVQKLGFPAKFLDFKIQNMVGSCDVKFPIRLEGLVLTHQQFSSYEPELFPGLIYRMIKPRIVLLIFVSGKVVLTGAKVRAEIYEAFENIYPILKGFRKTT

[2] = molecular target: T1, TBP (TATA-binding protein) (Homo sapiens, UniProt P20226 1-339); assay: EMSA; EMSA association kinetics, 0.3 nM TBP, four ODN concentrations; buffer, salt, pH and temperature not in the material; conditions: protein: recombinant; label: 32P both strands; blunt
T1 sequence (P20226 whole entry): as above

[3] = molecular target: T1, TBP (TATA-binding protein); assay: EMSA; association kinetics, 0.3 nM TBP; Table S2 in vitro -ln(KD) 15.05 disagrees; EMSA association kinetics, 0.3 nM TBP, four ODN concentrations; buffer, salt, pH and temperature not in the material; conditions: protein: recombinant; label: 32P both strands; blunt

Molecule	Kd [2]	other results
TCGAAAAATAAAACAAAATAAAACAT (double strand) [ASCL3 rs1049743008 T-45c]		Kd [1]: 17 nM
B1	499 nM	
B2	150 nM	
B3	557 nM	
B4		Kd [3]: 12 nM
B5	170 nM	
B6	31.9 nM	
B7	110 nM	
B8	140 nM	
B9	110 nM	
B10	150 nM	
B11	99.8 nM	
B12	59.9 nM	
B13	70.3 nM	
B14	50.1 nM	
B15	499 nM	
